# B1: DNA repair protein XRCC4 (Homo sapiens), Q13426 (parent)
# chain: MERKISRIHLVSEPSITHFLQVSWEKTLESGFVITLTDGHSAWTGTVSESEISQEADDMAMEKGKYVGELRKALLSGAGPADVYTFNFSKESCYFFFEKNLKDVSFRLGSFNLEKVENPAEVIRELICYCLDTIAENQAKNEHLQKENERLLRDWNDVQGRFEKCVSAKEALETDLYKRFILVLNEKKTKIRSLHNKLLNAAQEREKDIKQEGETAICSEMTADRDPVYDESTDEESENQTDLSGLASAAVSKDDSIISSLDVTDIAPSRKRRQRMQRNLGTEPKMAPQENQLQEKENSRPDSSLPETSKKEHISAENMSLETLRNSSPEDLFDEI
# Variants of: B1
# Conditions: with NHEJ1, Q9H9Q4-1
# Chain of NHEJ1, Q9H9Q4-1 (Q9H9Q4 whole entry): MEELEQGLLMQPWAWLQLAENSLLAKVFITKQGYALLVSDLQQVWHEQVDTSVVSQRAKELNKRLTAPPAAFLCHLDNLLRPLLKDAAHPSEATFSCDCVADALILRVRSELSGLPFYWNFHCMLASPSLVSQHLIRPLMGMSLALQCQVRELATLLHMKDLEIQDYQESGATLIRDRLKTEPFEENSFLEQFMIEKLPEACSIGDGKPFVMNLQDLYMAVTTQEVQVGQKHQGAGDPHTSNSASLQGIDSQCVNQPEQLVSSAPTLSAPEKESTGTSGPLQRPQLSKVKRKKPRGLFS
row,Variant,effect of a mutation on the interaction
1,D58R,disrupting interaction strength
2,E55R,disrupting interaction strength
3,M61R,disrupting interaction strength

# The next lines start with the values.
row,effect of a mutation on the interaction,Variant
1,decreasing interaction strength,K65E
2,disrupting interaction strength,F106E
3,decreasing interaction strength,F106A
4,decreasing interaction strength,F106Y
